# Source: article PMC5714945, “A homologue of the Parkinson’s disease-associated protein LRRK2 undergoes a monomer-dimer transition during GTP turnover” (Nature Communications, 2017)
# What was measured:
# [1] = biological target: the molecule itself; assay: native MS; GppNHp: pre-incubated with 500 µM, 100 µM in 150 mM ammonium acetate pH 7.5; protein 12.5-16 µM
# [2] = biological target: the molecule itself; assay: AUC; sedimentation equilibrium, with GDP; dimer to monomers; 7.2, 4.5 and 2.7 µM protein; buffer as SV-AUC; SEDPHAT monomer-dimer model; approximate KD
# [3] = biological target: the molecule itself; assay: AUC; sedimentation equilibrium, with GppNHp; dimer to monomers; 7.2, 4.5 and 2.7 µM protein; buffer as SV-AUC; SEDPHAT monomer-dimer model; approximate KD
# [4] = biological target: the molecule itself; assay: SEC-SAXS; nucleotide-free protein; 50 µl of 8 mg ml^-1 injected on a Bio SEC-3 column; 20 mM Hepes pH 7.5, 150 mM NaCl, 5 mM MgCl2, 5% glycerol, 1 mM DTT; mass from Porod volume
# [5] = biological target: the molecule itself; assay: SEC-MALS; nucleotide-free protein; 10 µl of 8 mg ml^-1 injected on a Bio SEC-3 column; buffer as for SEC-SAXS
# [6] = biological target: the molecule itself; assay: cell-based or functional assay
protein,measurement,setting,value
"Roco protein from Chlorobium tepidum (CtRoco), full length (natural protein, UniProt Q8KC98 1-1102, looked up, Roco protein from Chlorobium tepidum (CtRoco), a.a; 1-1102: LRR domain (1-411), Roc-COR module (412-946), C-terminal region (947-1102); also called CtRoco wt; C. tepidum Roco protein; source: E. coli BL21 (DE3), purified (Ni-NTA IMAC, EDTA treatment, Superdex S200 SEC)) MSDLDVIRQIEQELGMQLEPVDKLKWYSKGYKLDKDQRVTAIGLYDCGSDTLDRIIQPLESLKSLSELSLSSNQITDISPLASLNSLSMLWLDRNQITDIAPLASLNSLSMLWLFGNKISDIAPLESLKSLTELQLSSNQITDIAPLASLKSLTELSLSGNNISDIAPLESLKSLTELSLSSNQITDIAPLASLKSLTELSLSSNQISDIAPLESLKSLTELQLSRNQISDIAPLESLKSLTELQLSSNQITDIAPLASLKSLTELQLSRNQISDIAPLESLNSLSKLWLNGNQITDIAPLASLNSLTELELSSNQITDIAPLASLKSLSTLWLSSNQISDIAPLASLESLSELSLSSNQISDISPLASLNSLTGFDVRRNPIKRLPETITGFDMEILWNDFSSSGFITFFDNPLESPPPEIVKQGKEAVRQYFQSIEEARSKGEALVHLQEIKVHLIGDGMAGKTSLLKQLIGETFDPKESQTHGLNVVTKQAPNIKGLENDDELKECLFHFWDFGGQEIMHASHQFFMTRSSVYMLLLDSRTDSNKHYWLRHIEKYGGKSPVIVVMNKIDENPSYNIEQKKINERFPAIENRFHRISCKNGDGVESIAKSLKSAVLHPDSIYGTPLAPSWIKVKEKLVEATTAQRYLNRTEVEKICNDSGITDPGERKTLLGYLNNLGIVLYFEALDLSEIYVLDPHWVTIGVYRIINSSKTKNGHLNTSALGYILNEEQIRCDEYDPAKNNKFTYTLLEQRYLLDIMKQFELCYDEGKGLFIIPSNLPTQIDNEPEITEGEPLRFIMKYDYLPSTIIPRLMIAMQHQILDRMQWRYGMVLKSQDHEGALAKVVAETKDSTITIAIQGEPRCKREYLSIIWYEIKKINANFTNLDVKEFIPLPGHPDELVEYKELLGLEKMGRDEYVSGKLEKVFSVSKMLDSVISKEERNKERLMGDINIKLENIGNPTIPIHQQVEVNVSQETVQHVENLQGFFENLKADILREAELEIDDPKERKRLANELELAENAITKMDAAVKSGKNKLKPDVKDRLGEFIDNLANENSRLRKGIALVMNGAEKVQKLARYYNNVAPFFDLPSVPPVLLGKEKT",monomer-dimer ratio,[1],1 monomer/dimer
same,Kd,[2],~2 µM
same,Kd,[3],~30 µM
same,stoichiometry N,[4],2
"CtRoco L487A mutant, full length (natural protein, Chlorobium tepidum, UniProt Q8KC98 1-1102, looked up, Roco protein from Chlorobium tepidum (CtRoco), a.a; 1-1102, with L487A (analogue of LRRK2 I1371V); also called L487A CtRoco) MSDLDVIRQIEQELGMQLEPVDKLKWYSKGYKLDKDQRVTAIGLYDCGSDTLDRIIQPLESLKSLSELSLSSNQITDISPLASLNSLSMLWLDRNQITDIAPLASLNSLSMLWLFGNKISDIAPLESLKSLTELQLSSNQITDIAPLASLKSLTELSLSGNNISDIAPLESLKSLTELSLSSNQITDIAPLASLKSLTELSLSSNQISDIAPLESLKSLTELQLSRNQISDIAPLESLKSLTELQLSSNQITDIAPLASLKSLTELQLSRNQISDIAPLESLNSLSKLWLNGNQITDIAPLASLNSLTELELSSNQITDIAPLASLKSLSTLWLSSNQISDIAPLASLESLSELSLSSNQISDISPLASLNSLTGFDVRRNPIKRLPETITGFDMEILWNDFSSSGFITFFDNPLESPPPEIVKQGKEAVRQYFQSIEEARSKGEALVHLQEIKVHLIGDGMAGKTSLLKQLIGETFDPKESQTHGANVVTKQAPNIKGLENDDELKECLFHFWDFGGQEIMHASHQFFMTRSSVYMLLLDSRTDSNKHYWLRHIEKYGGKSPVIVVMNKIDENPSYNIEQKKINERFPAIENRFHRISCKNGDGVESIAKSLKSAVLHPDSIYGTPLAPSWIKVKEKLVEATTAQRYLNRTEVEKICNDSGITDPGERKTLLGYLNNLGIVLYFEALDLSEIYVLDPHWVTIGVYRIINSSKTKNGHLNTSALGYILNEEQIRCDEYDPAKNNKFTYTLLEQRYLLDIMKQFELCYDEGKGLFIIPSNLPTQIDNEPEITEGEPLRFIMKYDYLPSTIIPRLMIAMQHQILDRMQWRYGMVLKSQDHEGALAKVVAETKDSTITIAIQGEPRCKREYLSIIWYEIKKINANFTNLDVKEFIPLPGHPDELVEYKELLGLEKMGRDEYVSGKLEKVFSVSKMLDSVISKEERNKERLMGDINIKLENIGNPTIPIHQQVEVNVSQETVQHVENLQGFFENLKADILREAELEIDDPKERKRLANELELAENAITKMDAAVKSGKNKLKPDVKDRLGEFIDNLANENSRLRKGIALVMNGAEKVQKLARYYNNVAPFFDLPSVPPVLLGKEKT",stoichiometry N,[5],2
"CtRoc-COR L487A mutant (domain or fragment, Chlorobium tepidum, UniProt Q8KC98 412-946, looked up, Roco protein from Chlorobium tepidum, Roc-COR module a.a; 412-946, with L487A (analogue of LRRK2 I1371V); also called L487A CtRoc-COR) DNPLESPPPEIVKQGKEAVRQYFQSIEEARSKGEALVHLQEIKVHLIGDGMAGKTSLLKQLIGETFDPKESQTHGANVVTKQAPNIKGLENDDELKECLFHFWDFGGQEIMHASHQFFMTRSSVYMLLLDSRTDSNKHYWLRHIEKYGGKSPVIVVMNKIDENPSYNIEQKKINERFPAIENRFHRISCKNGDGVESIAKSLKSAVLHPDSIYGTPLAPSWIKVKEKLVEATTAQRYLNRTEVEKICNDSGITDPGERKTLLGYLNNLGIVLYFEALDLSEIYVLDPHWVTIGVYRIINSSKTKNGHLNTSALGYILNEEQIRCDEYDPAKNNKFTYTLLEQRYLLDIMKQFELCYDEGKGLFIIPSNLPTQIDNEPEITEGEPLRFIMKYDYLPSTIIPRLMIAMQHQILDRMQWRYGMVLKSQDHEGALAKVVAETKDSTITIAIQGEPRCKREYLSIIWYEIKKINANFTNLDVKEFIPLPGHPDELVEYKELLGLEKMGRDEYVSGKLEKVFSVSKMLDSVISKEERNKER","single-turnover GTP hydrolysis rate constant (1 µM protein, 1 µM GTP, GDP formation by reversed-phase HPLC), L487A against wild-type CtRoc-COR",[6],4 fold decrease
same,stoichiometry N,[5],2
"Roc-COR domain construct of the Chlorobium tepidum Roco protein (CtRoc-COR) (domain or fragment, UniProt Q8KC98 412-946, looked up, Roco protein from Chlorobium tepidum (CtRoco), central Roc-COR module, a.a; 412-946; The monomer chain is written; also called CtRoc-COR wt; Roc-COR module; source: E. coli BL21 (DE3), purified (Ni-NTA IMAC, EDTA treatment, Superdex S200 SEC)) DNPLESPPPEIVKQGKEAVRQYFQSIEEARSKGEALVHLQEIKVHLIGDGMAGKTSLLKQLIGETFDPKESQTHGLNVVTKQAPNIKGLENDDELKECLFHFWDFGGQEIMHASHQFFMTRSSVYMLLLDSRTDSNKHYWLRHIEKYGGKSPVIVVMNKIDENPSYNIEQKKINERFPAIENRFHRISCKNGDGVESIAKSLKSAVLHPDSIYGTPLAPSWIKVKEKLVEATTAQRYLNRTEVEKICNDSGITDPGERKTLLGYLNNLGIVLYFEALDLSEIYVLDPHWVTIGVYRIINSSKTKNGHLNTSALGYILNEEQIRCDEYDPAKNNKFTYTLLEQRYLLDIMKQFELCYDEGKGLFIIPSNLPTQIDNEPEITEGEPLRFIMKYDYLPSTIIPRLMIAMQHQILDRMQWRYGMVLKSQDHEGALAKVVAETKDSTITIAIQGEPRCKREYLSIIWYEIKKINANFTNLDVKEFIPLPGHPDELVEYKELLGLEKMGRDEYVSGKLEKVFSVSKMLDSVISKEERNKER",monomer/dimer ratio,[1],~1 monomer/dimer
same,stoichiometry N,[4],2
